Consider 116 sequences from the supplement of paper PMC10724198.

± gives the standard deviation of the averaged measurements.
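Note: PSI is a weighted mean of sequencing reads over stability bins, variants kept only with over 10 reads, mCherry proximal and sfGFP distal, peptide attached via GGGS linker.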

For the series, the system named is Saccharomyces cerevisiae. Put plainly: protein stability index of tFT-peptide fusion (C-terminal peptide) (PSI (0-1 scale)); higher = more stable (slower turnover). Conditions: genetic background: wild type; temperature: 30 C. On the procedure:
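Multiplexed protein stability (MPS) profiling in S. cerevisiae. Random 12-aa peptides (tFT-X12 library) are fused to the C-terminus of a sfGFP-mCherry tandem fluorescent timer, after mCherry and a GGGS linker. Cells are FACS-sorted into 8 mCherry/sfGFP bins and deep-sequenced. The protein stability index (PSI) is the read-weighted bin average, scaled from 0 (unstable) to 1 (stable). Only peptides with >10 reads are reported; cells were grown at 30 °C in SC-His with glucose.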
With GGFGSCVGHVLG, the protein stability index came to 0.735 ± 0.077.

In the case of GGFRWLGGSAPA, the protein stability index is 0.727 ± 0.072.

Regarding GGFVISGDVTVG, the protein stability index came out at 0.688 ± 0.038.

As to GGFVVGGGGWLG, the protein stability index is 0.733 ± 0.033.

As for GGGAGGRQGCGG, the protein stability index turned out to be 0.771 ± 0.027.

GGGAGKGPQTRG: the protein stability index worked out at 0.676 ± 0.062.

Turning to GGGAGVRKWRKG, the protein stability index was 0.703 ± 0.058.

Take GGGAGWGWGGRM: the protein stability index was 0.673 ± 0.017.

GGGAPADSGPGG returned a protein stability index of 0.628 ± 0.036.

For GGGARCGLGGRM, the protein stability index was found to be 0.7 ± 0.053.

In the case of GGGDRDGGTASG, the protein stability index came out at 0.698 ± 0.073.

The sequence GGGFLGGTVAAV displayed a protein stability index of 0.7 ± 0.032.

The sequence GGGGAGGGGGRV came in with a protein stability index of 0.676 ± 0.038.

GGGGAGGWGAVG displayed a protein stability index of 0.67 ± 0.036.

GGGGFQVAVGCR displayed a protein stability index of 0.714.

GGGGGGGAWKGV had a protein stability index of 0.69 ± 0.02.

In the case of GGGGGGGGGAGG, the protein stability index is 0.674 ± 0.023.

The sequence GGGGGGPGGVLK displayed a protein stability index of 0.706 ± 0.092.

With GGGGGGRAGVWG, the protein stability index turned out to be 0.687 ± 0.028.

For GGGGGGSRVWSA, the protein stability index turned out to be 0.698 ± 0.083.

Turning to GGGGGGVEPCFV, the protein stability index was 0.668 ± 0.041.

With GGGGGKAGSHLG, the protein stability index is 0.632 ± 0.01.

For GGGGGRAQEVQG, the protein stability index was determined as 0.717 ± 0.059.

GGGGGRAYSWWV yielded a protein stability index of 0.699 ± 0.014.

Consider GGGGGRGQGWYR, for which the protein stability index was determined as 0.651 ± 0.032.

Regarding GGGGGWAGENTR, the protein stability index was 0.715 ± 0.075.

As to GGGGLREGGRWE, the protein stability index is 0.743 ± 0.038.

GGGGRVRDALGM displayed a protein stability index of 0.696 ± 0.048.

With GGGGSVGGGALR, the protein stability index was found to be 0.651 ± 0.0088.

GGGLGRVWVKLG had a protein stability index of 0.716 ± 0.08.

On to GGGLRGVGGLGR, for which the protein stability index came to 0.602 ± 0.044.

GGGMCGRSGGRR returned a protein stability index of 0.706 ± 0.011.

GGGRFRRDRTYE came in with a protein stability index of 0.712 ± 0.028.

In the case of GGGRWSAGVVEG, the protein stability index was determined as 0.829 ± 0.1.

On to GGGSGGVVGGIS, for which the protein stability index stood at 0.674 ± 0.018.

GGGSITTFIGDE: the protein stability index worked out at 0.695 ± 0.018.

The sequence GGGSRLWGGGRV displayed a protein stability index of 0.728 ± 0.028.

Take GGGVATGGGGGG: the protein stability index stood at 0.599 ± 0.029.

GGGVGGPGGVLK: the protein stability index was found to be 0.675 ± 0.075.

In turn, GGGVGWWVSYVG showed a protein stability index of 0.673 ± 0.012.

On to GGGVRLMSIHRG, for which the protein stability index stood at 0.662 ± 0.012.

In turn, GGGVSFWLGVVA gave a protein stability index of 0.6211 ± 0.0026.

Regarding GGGWCESRGDGA, the protein stability index was found to be 0.655 ± 0.085.

As to GGGWGSRGVCLG, the protein stability index worked out at 0.65 ± 0.11.

For the sequence GGGWRGRRVADF, the protein stability index was 0.701 ± 0.043.

For the sequence GGHGRREEKGQR, the protein stability index amounted to 0.6845 ± 0.0058.

GGHLTMMFGRLF returned a protein stability index of 0.713 ± 0.019.

Turning to GGKWGVAGGGPW, the protein stability index is 0.738 ± 0.074.

Sequence GGLGLVESVFVI yielded a protein stability index of 0.67 ± 0.052.

Regarding GGLGVAGAGVVC, the protein stability index is 0.655 ± 0.042.

On to GGPASSGLMDGY, for which the protein stability index is 0.698 ± 0.0062.

GGPGGGGVSDGM gave a protein stability index of 0.804 ± 0.14.

GGPIQAGLSFPG: the protein stability index was determined as 0.685 ± 0.025.

GGPRGPPMLIWE registered a protein stability index of 0.738 ± 0.037.

GGRFGMWRGGQA showed a protein stability index of 0.7245 ± 0.0064.

As for GGRGAVSGIVRK, the protein stability index is 0.613 ± 0.014.

Sequence GGRGRGARPGGR returned a protein stability index of 0.647 ± 0.027.

Turning to GGRGSRWAGPRC, the protein stability index came to 0.669 ± 0.038.

With GGRPIRNTTREG, the protein stability index was found to be 0.655 ± 0.022.

Sequence GGRREGRGFNDG registered a protein stability index of 0.676 ± 0.025.

In turn, GGRRYSRPGQKH came in with a protein stability index of 0.661 ± 0.018.

For GGRSSGRLMGKE, the protein stability index worked out at 0.712 ± 0.013.

As for GGRTRPGGLSRP, the protein stability index stood at 0.678 ± 0.035.

GGSFRLLAVVFP had a protein stability index of 0.635 ± 0.044.

GGSRRANRQMRK came in with a protein stability index of 0.7148 ± 0.0045.

As to GGSRRRAVGAGV, the protein stability index came to 0.709 ± 0.057.

Sequence GGSSEKVLCIWR yielded a protein stability index of 0.7246 ± 0.0014.

Turning to GGTCWEGEVVDV, the protein stability index amounted to 0.641 ± 0.029.

Sequence GGTKGKAGGEAA showed a protein stability index of 0.672 ± 0.043.

For the sequence GGVFREEGAAER, the protein stability index worked out at 0.693 ± 0.021.

Turning to GGVGSMITWRVG, the protein stability index was 0.689 ± 0.082.

With GGVGWWVGVVWG, the protein stability index came to 0.624 ± 0.071.

With GGVLDGVGVRMG, the protein stability index is 0.69 ± 0.054.

GGVVVGRGVCVF registered a protein stability index of 0.626 ± 0.032.

Turning to GGVVVRGRASAR, the protein stability index amounted to 0.717 ± 0.02.

The sequence GGWCWGWGPGSG had a protein stability index of 0.687 ± 0.056.

In turn, GGWGGVCGACVV displayed a protein stability index of 0.702 ± 0.035.

GGWGRKCGGSGG: the protein stability index was determined as 0.711 ± 0.018.

The sequence GGWGWEGRGGSG returned a protein stability index of 0.677 ± 0.014.

In turn, GGWPLSPSFGWG displayed a protein stability index of 0.571.

GGWWSCAWGVRG had a protein stability index of 0.627 ± 0.065.

Sequence GHEKAGPSIGFL displayed a protein stability index of 0.644 ± 0.027.

GHFWVFGIPFFR had a protein stability index of 0.6547 ± 0.0017.

As for GHVCNSIVPFRV, the protein stability index was found to be 0.624 ± 0.022.

In turn, GHVPIWPFLSLS showed a protein stability index of 0.6664 ± 0.0042.

With GIASKCFWFVCG, the protein stability index was determined as 0.645 ± 0.018.

Turning to GICDAVLFTMLV, the protein stability index was found to be 0.682 ± 0.068.

In the case of GIKQEMKYQVGK, the protein stability index is 0.665 ± 0.07.

With GILRGSKKVDPP, the protein stability index stood at 0.622 ± 0.029.

Take GILYFPAGHHAG: the protein stability index was 0.627 ± 0.035.

GIPWSVLLSSYW had a protein stability index of 0.713 ± 0.033.

Turning to GIQAGGGGGKGG, the protein stability index worked out at 0.676 ± 0.022.

Consider GIQIRIDNQKKN, for which the protein stability index is 0.67 ± 0.025.

Turning to GIVFVFGGGLAL, the protein stability index is 0.702 ± 0.078.

On to GIVVTCLRSRWD, for which the protein stability index was found to be 0.647 ± 0.013.

For the sequence GKADRRKSEHVR, the protein stability index came out at 0.733 ± 0.047.

The sequence GKCFSFSFNCLH gave a protein stability index of 0.521 ± 0.023.

Take GKFVEVVRFWSV: the protein stability index is 0.721 ± 0.074.

GKGREGVGEVGK returned a protein stability index of 0.6753 ± 0.0043.

GKGRIWTGRKGC had a protein stability index of 0.68 ± 0.098.

In the case of GKGYVFRTLSHL, the protein stability index worked out at 0.732 ± 0.082.

The sequence GKIGAIRVVGWA showed a protein stability index of 0.662 ± 0.02.

Consider GKLLPCVRGRGL, for which the protein stability index came to 0.665 ± 0.024.

In turn, GKNGKNMDKDNK returned a protein stability index of 0.676 ± 0.019.

Sequence GKNRKKEEHAKR came in with a protein stability index of 0.702 ± 0.12.

Sequence GKRGKKVKKKSK registered a protein stability index of 0.621 ± 0.016.

Take GKRKEAVLRMMI: the protein stability index was 0.6213 ± 0.0017.

In turn, GKSLIKRYANKI showed a protein stability index of 0.7436 ± 0.0019.

Consider GKSREKEKESRE, for which the protein stability index stood at 0.658 ± 0.032.

In turn, GKTNKALDRISI registered a protein stability index of 0.679 ± 0.038.

GKYKKGNSIAIE had a protein stability index of 0.598 ± 0.012.

GLAPYRPVITFS returned a protein stability index of 0.675 ± 0.002.

Turning to GLCGVVFGGRGE, the protein stability index came to 0.657 ± 0.064.

In turn, GLCPCGDAISTR showed a protein stability index of 0.682 ± 0.053.

Take GLEGSVRRVRGS: the protein stability index was determined as 0.701 ± 0.011.

As for GLESVGRVSLRG, the protein stability index was found to be 0.657 ± 0.0094.
